Assay results: patent US20120214748A1, “NOVEL PEPTIDES, PROCESS FOR PREPARATION THEREOF, AND USE THEREOF” (priority 2009, published 2012)
Blank lines part the entries; values can stand above or below the binder they belong to.

Key:
Thrombin = test: enzyme inhibition, Z-Gly-Pro-Arg-pNa substrate, tight-binding fit
[1] = target: MASP-2 CCP1-CCP2-SP (human), O00187; test: enzyme inhibition, Z-L-Lys-SBzl substrate, tight-binding fit
Trypsin = test: as above
Trypsin, sequence (P00760 24-246): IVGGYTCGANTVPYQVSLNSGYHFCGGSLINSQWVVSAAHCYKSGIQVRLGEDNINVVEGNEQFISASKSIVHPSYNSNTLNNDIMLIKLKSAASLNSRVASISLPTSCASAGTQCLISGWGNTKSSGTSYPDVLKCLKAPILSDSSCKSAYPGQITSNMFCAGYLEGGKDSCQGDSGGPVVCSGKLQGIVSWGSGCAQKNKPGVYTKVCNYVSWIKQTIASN

MASP-2 CCP1-CCP2-SP (human), O00187, sequence (O00187 298-686 limits assumed): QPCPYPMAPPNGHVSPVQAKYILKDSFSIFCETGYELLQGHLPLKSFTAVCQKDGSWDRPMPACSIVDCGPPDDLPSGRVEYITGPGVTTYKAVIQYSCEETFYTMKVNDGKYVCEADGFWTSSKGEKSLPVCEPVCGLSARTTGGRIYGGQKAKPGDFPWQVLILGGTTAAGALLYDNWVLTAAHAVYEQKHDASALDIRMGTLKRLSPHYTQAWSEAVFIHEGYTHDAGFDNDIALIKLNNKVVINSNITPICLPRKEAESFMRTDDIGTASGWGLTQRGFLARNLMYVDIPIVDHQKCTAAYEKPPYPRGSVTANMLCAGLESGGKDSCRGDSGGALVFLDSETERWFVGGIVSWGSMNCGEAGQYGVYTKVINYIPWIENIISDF

- Ki (Thrombin): 140 µM
B1: wild-type SFTI (Sun Flower Trypsin Inhibitor) (peptide)
peptide: GRCTKSIPPICFPD
modifications: not checked

- Ki [1]: 0.18 µM
- Ki (Trypsin): 1 µM
- Ki (Thrombin): 550 µM
B2: M2-6E (peptide)
peptide: GYCSRSYPPVCIPD
modifications: not checked
